Laboratory results reported in PMC5802723, “Pro-metastatic collagen lysyl hydroxylase dimer assemblies stabilized by Fe^2+-binding” (Nature Communications, 2018).

Legend:
[1] = molecular target: bovine skin collagen substrate containing no telopeptides (Bovine PureCol) (bovine) (UniProt P02453)
[2] = molecular target: L230 LH domain (amino acids 680-895), wild type (Acanthamoeba polyphaga mimivirus); test: SAXS; L230 LH domain in solution, three concentrations diluted from 6 mg/ml, merged; SIBYLS beamline
[3] = molecular target: L230 LH domain (amino acids 680-895), wild type (Acanthamoeba polyphaga mimivirus); test: SEC-MALS; L230 variants, 3 mg/ml, 150 ul, Superdex 75; 20 mM Tris pH 8, 200 mM NaCl, 0.02% sodium azide, room temperature
[4] = molecular target: L230 LH domain (amino acids 680-895), wild type (Acanthamoeba polyphaga mimivirus); test: MST; Atto647-labelled L230 (40 nM, 10 ul) mixed with equal volume of unlabelled L230 (8.5 uM-0.5 nM); incubated at 25 °C for 15 min, measured at 20 °C; dimer to monomers
[5] = molecular target: the molecule itself; test: SEC-MALS; Human LH2 proteins, 2 mg/ml, 100 ul, Superdex 200; 20 mM Tris pH 8, 200 mM NaCl, 0.02% sodium azide, room temperature

Chain of bovine skin collagen substrate containing no telopeptides (Bovine PureCol) (bovine) (P02453 162-1217, chain 1 of 2): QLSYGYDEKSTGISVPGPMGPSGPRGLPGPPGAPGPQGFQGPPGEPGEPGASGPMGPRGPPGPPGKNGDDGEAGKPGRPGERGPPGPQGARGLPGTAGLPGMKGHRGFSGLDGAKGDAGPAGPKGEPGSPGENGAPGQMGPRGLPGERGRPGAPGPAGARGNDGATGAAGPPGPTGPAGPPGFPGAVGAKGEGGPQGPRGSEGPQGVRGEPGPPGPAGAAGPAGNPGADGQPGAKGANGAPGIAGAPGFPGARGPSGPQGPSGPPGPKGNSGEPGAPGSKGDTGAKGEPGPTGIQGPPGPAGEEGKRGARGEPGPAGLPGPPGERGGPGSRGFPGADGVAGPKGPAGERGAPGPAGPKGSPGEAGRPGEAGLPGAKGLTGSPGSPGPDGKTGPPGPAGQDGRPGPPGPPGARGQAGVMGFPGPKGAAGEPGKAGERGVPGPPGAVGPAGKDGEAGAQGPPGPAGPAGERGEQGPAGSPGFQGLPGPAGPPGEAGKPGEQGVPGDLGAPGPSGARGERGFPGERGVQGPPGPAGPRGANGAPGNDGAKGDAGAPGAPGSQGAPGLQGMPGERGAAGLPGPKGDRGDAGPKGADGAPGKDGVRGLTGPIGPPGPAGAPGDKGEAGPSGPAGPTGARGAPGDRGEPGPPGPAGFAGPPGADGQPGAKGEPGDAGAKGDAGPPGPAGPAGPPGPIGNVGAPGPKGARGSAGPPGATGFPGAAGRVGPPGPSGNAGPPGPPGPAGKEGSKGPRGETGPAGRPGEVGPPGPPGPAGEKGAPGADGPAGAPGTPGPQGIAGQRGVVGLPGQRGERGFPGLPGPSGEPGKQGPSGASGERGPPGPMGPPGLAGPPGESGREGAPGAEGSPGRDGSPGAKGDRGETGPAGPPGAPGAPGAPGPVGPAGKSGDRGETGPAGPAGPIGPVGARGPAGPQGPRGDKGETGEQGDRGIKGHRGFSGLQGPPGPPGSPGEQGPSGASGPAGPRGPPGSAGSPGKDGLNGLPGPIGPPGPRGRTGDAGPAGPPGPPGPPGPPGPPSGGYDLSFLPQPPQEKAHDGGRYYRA
Chain of bovine skin collagen substrate containing no telopeptides (Bovine PureCol) (bovine) (P02465 80-1117, chain 2 of 2, further chain): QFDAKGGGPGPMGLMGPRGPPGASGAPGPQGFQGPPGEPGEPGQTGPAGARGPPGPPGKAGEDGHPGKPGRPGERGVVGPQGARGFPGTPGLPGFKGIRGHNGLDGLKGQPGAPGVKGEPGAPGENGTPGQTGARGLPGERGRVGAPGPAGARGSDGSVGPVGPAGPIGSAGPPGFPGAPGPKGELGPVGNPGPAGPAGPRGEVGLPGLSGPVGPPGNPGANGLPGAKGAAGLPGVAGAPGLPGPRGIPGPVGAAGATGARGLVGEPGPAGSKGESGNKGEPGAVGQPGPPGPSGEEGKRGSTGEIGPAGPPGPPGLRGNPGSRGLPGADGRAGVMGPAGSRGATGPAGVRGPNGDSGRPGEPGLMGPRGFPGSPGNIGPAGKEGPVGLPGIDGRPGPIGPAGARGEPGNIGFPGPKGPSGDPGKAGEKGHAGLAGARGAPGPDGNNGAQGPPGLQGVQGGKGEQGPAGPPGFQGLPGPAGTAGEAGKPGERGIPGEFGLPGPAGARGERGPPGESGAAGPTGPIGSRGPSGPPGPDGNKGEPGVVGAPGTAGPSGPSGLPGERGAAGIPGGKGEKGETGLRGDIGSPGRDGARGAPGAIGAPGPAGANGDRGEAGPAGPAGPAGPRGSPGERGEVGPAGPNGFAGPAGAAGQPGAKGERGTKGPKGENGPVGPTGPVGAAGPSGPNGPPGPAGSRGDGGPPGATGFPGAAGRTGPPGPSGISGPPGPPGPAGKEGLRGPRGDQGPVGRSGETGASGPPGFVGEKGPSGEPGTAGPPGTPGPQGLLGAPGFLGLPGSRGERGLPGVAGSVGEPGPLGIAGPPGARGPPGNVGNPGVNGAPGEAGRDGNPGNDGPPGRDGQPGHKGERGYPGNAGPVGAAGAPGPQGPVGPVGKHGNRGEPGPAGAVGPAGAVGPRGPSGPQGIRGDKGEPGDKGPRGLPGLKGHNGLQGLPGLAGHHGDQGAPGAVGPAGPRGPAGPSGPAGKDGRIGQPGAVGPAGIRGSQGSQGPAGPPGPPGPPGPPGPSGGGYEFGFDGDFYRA

Molecule | estimated Km for bovine skin collagen in the enzymatic assay (succinate production); achievable collagen concentrations did not saturate activity [1] | stoichiometry N [2] | stoichiometry N [3] | Kd [4] | binding result [5]
L230 LH domain (amino acids 680-895) K804E (domain or fragment) | 9.6 µM | – | – | – | –
L230 LH domain (amino acids 680-895), wild type (domain or fragment) | 2.6 µM | 2 | 2 | 23.9 nM | –
Human LH2 recombinant protein (residues 33-758), wild type (enzyme, UniProt O00469-2 33-758, looked up, Human lysyl hydroxylase 2 (LH2), residues 33-758; the printed end at 758 and the residues D689 and L735 fit the 758-residue isoform; also called lysyl hydroxylase 2; source: ExpiCHO cells, transient transfection, secreted) SIPTDKLLVITVATKESDGFHRFMQSAKYFNYTVKVLGQGEEWRGGDGINSIGGGQKVRLMKEVMEHYADQDDLVVMFTECFDVIFAGGPEEVLKKFQKANHKVVFAADGILWPDKRLADKYPVVHIGKRYLNSGGFIGYAPYVNRIVQQWNLQDNDDDQLFYTKVYIDPLKREAINITLDHKCKIFQTLNGAVDEVVLKFENGKARAKNTFYETLPVAINGNGPTKILLNYFGNYVPNSWTQDNGCTLCEFDTVDLSAVDVHPNVSIGVFIEQPTPFLPRFLDILLTLDYPKEALKLFIHNKEVYHEKDIKVFFDKAKHEIKTIKIVGPEENLSQAEARNMGMDFCRQDEKCDYYFSVDADVVLTNPRTLKILIEQNRKIIAPLVTRHGKLWSNFWGALSPDGYYARSEDYVDIVQGNRVGVWNVPYMANVYLIKGKTLRSEMNERNYFVRDKLDPDMALCRNAREMTLQREKDSPTPETFQMLSPPKGVFMYISNRHEFGRLLSTANYNTSHYNNDLWQIFENPVDWKEKYINRDYSKIFTENIVEQPCPDVFWFPIFSEKACDELVEEMEHYGKWSGGKHHDSRISGGYENVPTDDIHMKQVDLENVWLHFIREFIAPVTLKVFAGYYTKGFALLNFVVKYSPERQRSLRPHHDASTFTINIALNNVGEDFQGGGCKFLRYNCSIESPRKGWSFMHPGRLTHLHEGLPVKNGTRYIAVSFIDP | – | – | – | – | binds
